Experimental findings from the RNAGym collection of RNA variant scans (doi:10.7554/elife.80360) are described below.

Sequences and labels used below:
B1: Hairpin Ribozyme (parent)
chain: GUCCUCUUUCACGUGCGCGUGAAAGAGAGAAGUGAACCAGAGAAACACACGUUGUGGUAUAUUACCUGGUA

In the series the parent is B1. The series is described as follows: self-cleavage, relative activity (ratio to wild type); higher = more cleavage; co-transcriptional.
Regarding GUCCUCUUUCACGCGCGCGUGAAAGAGAGAAGUGAACCAGAGAAGCACACGUUGUGGUAUAUUACCUGGUA, the self-cleavage stood at 0.0672.

Turning to GUCCGCUUUCACGUCCGCGUGAAAGAGAGAAGUGAACCAGAGAAACACACGUUGUGGUAUAUUACCUGGUA, the self-cleavage came to 0.249.

Take GUCCUCUUUCACGUGCGCGUGAAAUAGAGAAGUGACCCAGAGAAACACACGUUGUGGUAUAUUACCUGGUA: the self-cleavage is 0.463.

In the case of GUCCUCUUUCACGGGCGCAUGAAAGAGAGAAGUGAACCAGAGAAACACACGUUGUGGUAUAUUACCUGGUA, the self-cleavage is 0.651.

On to GUCUUCUUUCACGUGCGCGUGAAAGAGAGAAGUGAACCAGAGAAACACACGUUGUCGUAUAUUACCUGGUA, for which the self-cleavage amounted to 0.214.

As for GUCCUCUUUCACGUGAGCGUGAAAGAGAGAAGUGAACCAGAGAAACACACGUUGUGGCAUAUUACCUGGUA, the self-cleavage was 0.937.

GUCCUCUUUCACGUGCGCGUGAAAGAGAUAAGUGAACCAGAGAAACACACGUUGUGGUAUGUUACCUGGUA: the self-cleavage was 0.223.

For the variant GUCCUCUUUCACGUGCGCGUGAAAGAGAGAAGUUAACCAGAGAAACACACGUUGUGGUAAAUUACCUGGUA, the self-cleavage was 1.52.

Turning to GUCCUCUUUCACGUGCGCGUGAAAGAGAGGAGUGAACCAGAGAAACACACGUUGUGGUAUAUUACCAGGUA, the self-cleavage worked out at 0.215.

Consider GUCCUCUUUCACGUGCGCGUGAAAGAGAGGAGGGAACCAGAGAAACACACGUUGUGGUAUAUUACCUGGUA, for which the self-cleavage worked out at 0.0952.

Take GUCCUCUUUCACGUGCGCGUGAAAGUGAGAAGUGAACCAGAGAAACACACGUUGUGGAAUAUUACCUGGUA: the self-cleavage was found to be 0.391.

Consider GUCCUCUUUCACGUGCGCGUGAAAGAGAGACGUGAACCAGAGAAACACACGUUGUGGUAUAAUACCUGGUA, for which the self-cleavage came out at 0.12.

Regarding GUCCUCUUUCACGUGCGCGUGAAAGAGAGAAGUGAACCAGAGAAACACACGUUGUGGUAUACUACCUCGUA, the self-cleavage was found to be 0.223.

In the case of GUCCUCUUUCACGUUCGCGUGAAAGAGAGGAGUGAACCAGAGAAACACACGUUGUGGUAUAUUACCUGGUA, the self-cleavage was 0.122.

As for GUCUUCUUACACGUGCGCGUGAAAGAGAGAAGUGAACCAGAGAAACACACGUUGUGGUAUAUUACCUGGUA, the self-cleavage was 0.202.

For GUCCUCUAUCACGUGCGCGUGAAAGAGAGAAGUGAACCAGAGAAACACACGUUGUGGUAUAUUACCUUGUA, the self-cleavage was determined as 0.172.

Consider GUCCUCUUUGACGUGCGCUUGAAAGAGAGAAGUGAACCAGAGAAACACACGUUGUGGUAUAUUACCUGGUA, for which the self-cleavage was determined as 0.507.

As for GUCCUCUUCCACGUGCGCCUGAAAGAGAGAAGUGAACCAGAGAAACACACGUUGUGGUAUAUUACCUGGUA, the self-cleavage came out at 0.485.

With GUCCUCUUUCACGUGCGCGUGAAAGAGAGCAGUGAACCAGAGAAACACACCUUGUGGUAUAUUACCUGGUA, the self-cleavage is 0.0477.

Turning to GUCCUCUUUCACGUGCGCGUGAAAGAGAGAAGUGAACCAGACAAACACACGUUGUGGUAUAUUACCUGGCA, the self-cleavage is 0.233.

GUCCUCUUUCACGUGCGCGUGAAAGAGAGAAGUGAACCAGACAAACAAACGUUGUGGUAUAUUACCUGGUA: the self-cleavage was found to be 0.134.

On to GUCCUCUUUCACGUGCGCAUGAAAGAGAGAAGUGGACCAGAGAAACACACGUUGUGGUAUAUUACCUGGUA, for which the self-cleavage is 1.01.

As for GUCGUCUUUCACGUGCGCGUGAAAGAGAGAAGUGAACCAGAGAAACACACGUUGUGGUAUAUUACCUGGUG, the self-cleavage is 0.241.

With GUCCUCGUUCGCGUGCGCGUGAAAGAGAGAAGUGAACCAGAGAAACACACGUUGUGGUAUAUUACCUGGUA, the self-cleavage stood at 0.734.

In the case of GUCCUCUUUCACGUGCGCGUGUAAGAGAGAAGAGAACCAGAGAAACACACGUUGUGGUAUAUUACCUGGUA, the self-cleavage was 0.172.

GUCCUCUUUCACGUGCGCGUGAAAGAGAGAAGUGAACCAGAGAAACACACGUUGUGGUAUAUUACCUCGCA: the self-cleavage was 0.339.

In the case of GUCCCCUUUCACGUGCGCGUGAAAGAGAGAAGUGAACCAGAGAAACACAGGUUGUGGUAUAUUACCUGGUA, the self-cleavage is 0.147.

Regarding GCCCUCUUUCACGUGCGCGUGAAAGAGAGAAGUGAACCAGAGAAAGACACGUUGUGGUAUAUUACCUGGUA, the self-cleavage turned out to be 0.0408.

As for GUCCGCUUUCACGUGCGCGUGAAAGAGAGAAGUGAACCAGAGAAACACACGUUGUGGAAUAUUACCUGGUA, the self-cleavage is 0.272.

For GUCCUCUUUCACGUGCGCGUGAAAGAGAGAAGUGAACCAGAGAAACAGACGUUGUGGUAUAUUACCUUGUA, the self-cleavage was 0.163.

In the case of GUCCUCUUUCACGUGCGCUUGAAAGAGAGAAGUGAACCAGAGAAACACACGUUUUGGUAUAUUACCUGGUA, the self-cleavage turned out to be 0.497.

With GUCCUCUUUCACGUGCGCGUGAAAGAGAGAAGUGAACCAGAGAAUCACACGUUGUGGAAUAUUACCUGGUA, the self-cleavage came out at 0.132.

On to GUCCUCUUUCACGUGCGCGUGAAAGAGAGAAGUGAACCAGAGAAACACACGUUGUGGUAUAAUACCUGCUA, for which the self-cleavage is 0.113.

With GUUCUCUUUCACGUGCGCGUGAAAGAGAGAAGUGAACCAGAGAAACAUACGUUGUGGUAUAUUACCUGGUA, the self-cleavage was 0.172.

For the variant GUCCUCUUUCAAGUGCGCGUGAAAGAGAGAAGUGAACCAGAGAAACACACGUUGUGGCAUAUUACCUGGUA, the self-cleavage is 0.686.

GUCCUCUUGCACGUGCGCGUGAAAGAGAGAAGUGAACCAGAGACACACACGUUGUGGUAUAUUACCUGGUA: the self-cleavage worked out at 0.0667.

Consider GUCCUCUUUCACGUGCGCGUGAAAGACAGAAGUGAACCAGAGCAACACACGUUGUGGUAUAUUACCUGGUA, for which the self-cleavage was determined as 0.107.

Take GUCCUCUUUCAAGUGCGCGUGAAAGAGAGAAGUGAACCAGAGAAACACACGUUGUGGUAUAUUGCCUGGUA: the self-cleavage was 0.411.

In the case of GUCAUCUUUCACGUGCGCGUGAAAGAGAGAAGUGAACCGGAGAAACACACGUUGUGGUAUAUUACCUGGUA, the self-cleavage amounted to 0.134.

As to GUCCUAUUUCACGUGCGGGUGAAAGAGAGAAGUGAACCAGAGAAACACACGUUGUGGUAUAUUACCUGGUA, the self-cleavage came to 0.43.

For GUCCUCUUUCUCGUGCGCGUGAAAGAGAUAAGUGAACCAGAGAAACACACGUUGUGGUAUAUUACCUGGUA, the self-cleavage worked out at 0.0998.

GUCCUCUUUCACGUGCGCGUGAAAGGGAGAAGUGAACCAGAGAAACACACGUUGUGGUAUAUUACCUGAUA: the self-cleavage was found to be 0.451.

For GUCCUCUUUCACGUGCGCGUGAAAGAGCGAAGUGAACCAGAGAAACACACGUUGUGGUAUAUUGCCUGGUA, the self-cleavage stood at 0.285.

With GUCCUCUUUCACGUGCACGUGAAAGAGAGACGUGAACCAGAGAAACACACGUUGUGGUAUAUUACCUGGUA, the self-cleavage amounted to 0.144.

Take GUCCUCUUUCACGUGCGCGUGGAAGAGAGAAGUGAACCAGAGAGACACACGUUGUGGUAUAUUACCUGGUA: the self-cleavage stood at 0.193.

GCCCUCUUUCACGUGCGCGUGAAAGAGAGAAGUGAACCAGAGAAACACACGUUGUCGUAUAUUACCUGGUA: the self-cleavage stood at 0.166.

In the case of GUCCUCUUUCACGUGCGCGUGAAAGAGAGAACUGAACCAGAGAAACACACGUUGAGGUAUAUUACCUGGUA, the self-cleavage is 0.176.

As to GUCCUCUUUCACGUGCGAGUGAAAGAGAGAAGUGAACCAGAGAAACACACGUUGUGGUAUAUUUCCUGGUA, the self-cleavage was determined as 0.158.

Consider GUCCUCUUACACGUGCGCGUGAAAGAGAGAAGUGAACCAGAGAAACACACGUUGUUGUAUAUUACCUGGUA, for which the self-cleavage worked out at 0.178.

GUCCUCUUUCACGUGCGCGUGAAAGAGAGAAGUGAACCAGAGAAACACACGUUGUAAUAUAUUACCUGGUA: the self-cleavage was 0.136.

Consider GUCCUCUGUCACGUGCGCGUGAAAGAGAGAAGUGAACCAGAGGAACACACGUUGUGGUAUAUUACCUGGUA, for which the self-cleavage stood at 0.132.

As to GUCCUCUUUCACGUGCGCAUCAAAGAGAGAAGUGAACCAGAGAAACACACGUUGUGGUAUAUUACCUGGUA, the self-cleavage was 0.673.

Consider GUCCUCUUUCACGUGCGAGUGAAAUAGAGAAGUGAACCAGAGAAACACACGUUGUGGUAUAUUACCUGGUA, for which the self-cleavage stood at 0.761.

On to GUCCUCUUUCACGUGCGCGUGAAAGAGAGAAGUGAACCAGGGAAACCCACGUUGUGGUAUAUUACCUGGUA, for which the self-cleavage is 0.189.

Take GUCCUCGUUCACGUGCGCCUGAAAGAGAGAAGUGAACCAGAGAAACACACGUUGUGGUAUAUUACCUGGUA: the self-cleavage worked out at 0.592.

Take GUCCUCUUUCACGUGCGCGUGAAAGAGAGAAGUGAACCAGAGGAACACACGUUUUGGUAUAUUACCUGGUA: the self-cleavage came to 0.156.

Regarding UUCCUCUUUCACGUGCGCGUGAAAGAGAGAAGUGAACCAGAGAAACACACGUUGUGGUAUACUACCUGGUA, the self-cleavage amounted to 0.172.

As for GUCCUCUUUCACGUGCGCGUGAAAGAGAGAAGUGAGCCAGAGAAACACACGUUGUGGUACAUUACCUGGUA, the self-cleavage stood at 1.1.

For GUCCUCUUUCACGUGCGCGGGAAAGAGAGAAGUGACCCAGAGAAACACACGUUGUGGUAUAUUACCUGGUA, the self-cleavage turned out to be 0.771.

As for GUCCUCUUUCACGUGCGCGUGAAAGAGAGAAGUGGACCAGAGAAACACACGUUGAGGUAUAUUACCUGGUA, the self-cleavage is 0.292.

GUCCUCUUUCACGUGCGCGUGAAAGAGAGAAGUGAACCAGAGAACCACACGUUGUUGUAUAUUACCUGGUA: the self-cleavage is 0.203.

In the case of GUCCUCUUUCACGUGCGCGUCAAAGAGAGCAGUGAACCAGAGAAACACACGUUGUGGUAUAUUACCUGGUA, the self-cleavage amounted to 0.242.

GUCCUCUUUCACGUGCGCGUGAAAGAGAAAAGUGAACCAGAGAAACACGCGUUGUGGUAUAUUACCUGGUA: the self-cleavage was 0.138.

As for GUCCUCUUCCACGUGCGCGUGAAAGGGAGAAGUGAACCAGAGAAACACACGUUGUGGUAUAUUACCUGGUA, the self-cleavage turned out to be 0.747.

Turning to GUCCUCUUUCACGUGCGCGUGAAAGAGAGGAGUGAACCAGAGAAACACACGUAGUGGUAUAUUACCUGGUA, the self-cleavage was 0.0621.

For GUCCUCUUUCACGUGCCCGUGAAAGAGAGAAGUGAACCAGAGUAACACACGUUGUGGUAUAUUACCUGGUA, the self-cleavage was determined as 0.0572.

As for GUCCUCCUUCACGUGCGCGUGAAAGAGAGAAGUGAACCAGAGAAACACACGUUGUGGUAUUUUACCUGGUA, the self-cleavage was 0.175.

Take GUCCUCUUUCACGUGCGCGUGAAAGAGAGAAGUGAACCAGAGAAACACACGUUGUAGUAUAUUACGUGGUA: the self-cleavage came to 0.114.

As to GGCCUCUUUCACGUGCGCGUGAAAGACAGAAGUGAACCAGAGAAACACACGUUGUGGUAUAUUACCUGGUA, the self-cleavage came out at 0.112.

GUCCUCUUUCACGUGCGCGUGAAAGAGAGAAGUGCACCUGAGAAACACACGUUGUGGUAUAUUACCUGGUA: the self-cleavage came out at 0.445.

For the variant GUCCUCUCUCACGUGCGCGUGAAAGAGAGAAGUGAACCAGAGAAACACACGAUGUGGUAUAUUACCUGGUA, the self-cleavage was found to be 0.676.

Turning to GUCCUCUUUCACGUGCGCCUGAAAGAGAGAAGUGAACCAGAGAAACACGCGUUGUGGUAUAUUACCUGGUA, the self-cleavage came to 0.366.

For GUCCUCUUUCACGUGUGCGUGAAAGAGAGAAGUGAACCAGAGAAACACACGUUGUGGUAUAUUAACUGGUA, the self-cleavage is 1.15.

For the variant GUCCUCUUUCACGUGCGCGCGAAAGAGAGAAGUGAACCAGUGAAACACACGUUGUGGUAUAUUACCUGGUA, the self-cleavage amounted to 1.36.

For GUCCUCUUUCUCGUGCGCGUGAAAGAGAGAAGUGCACCAGAGAAACACACGUUGUGGUAUAUUACCUGGUA, the self-cleavage came out at 0.86.

GUCCUCUUUCAUGUGCGCGUGAAAGAGUGAAGUGAACCAGAGAAACACACGUUGUGGUAUAUUACCUGGUA: the self-cleavage came out at 0.583.
